Test results reported in patent US20260007728A1, “COMBINATION THERAPIES INVOLVING L-ASPARAGINASE” (Jazz Pharmaceuticals Ireland Ltd., priority 2022, published 2026).

How the values were obtained:
[1] = system: cell lines with low and high ASNS expression; experiment: Bliss synergy of pathway inhibitors with JZP-458 (cytotoxicity readout); assay type: cell-based; details: in combination with JZP-458
Method: Combination study BLISS matrix-Bliss Assay Protocol: Cells were plated in 384-well plates in 45 μl cell culture medium at a density of, that is, at numbers of cells per well as indicated in FIG. 24. For each cell line, the optimal cell density was determined a priori to obtain an optimal assay window. Plated cells were incubated in a humidified incubator with 5% CO2 at 37° C. 24 hours post-plating, 5 μl of compound dilution was added to each well and plates were further incubated for another 72 hours after which 25 μl of ATPlite 1 Step (PerkinElmer, Groningen, The Netherlands) solution was added to each well. Luminescence was recorded on an Envision multimode reader (PerkinElmer, Waltham, MA, U.S.A.). For determination of Bliss independence scores, two drugs were added in increasing concentrations in a 6×6 matrix. […] The percent viability for each drug either alone or in combination was determined relative to control samples and the Bliss independence scores for each combination were determined as described (Liu, Q., et al., Stat Biopharm. Res. 10: 112; 2018). […]

[2] = system: BCL2 expression in triple hit lymphoma line WSU-DLCL2; experiment: qPCR gene expression after compound treatment; assay type: cell-based
Method: (§1) Cell Culture: Cell culture medium: RPMI 1640 medium (#2198761, Thermo Fisher) supplemented with 10% fetal calf serum (#S00AZ, BioWest) and 1% pen/strep (#15140-122, Thermo Fisher). At day-1, 900 μl cell suspension was seeded in 24-well plates (#662165, Greiner Bio-One) at a density of 128,000 cells/well. At day 0, 100 μl compound was added in three different concentrations to reach a final concentration of 0.316×IC50, 1×IC50, and 3.16×IC50 (unless indicated otherwise). To the control samples, 100 μl 20 mM HEPES+3.16% DMSO was added instead of compound. When the compound is prepared in HEPES instead of DMSO, 20 mM HEPES without DMSO was added to the cells. The cells were collected at 6 hours, 24 hours and 48 hours after addition of the compound and were transferred to a 96-well deep well plate and centrifuged for 5 min at 340×g. Prior to the collection of the cells microscopic pictures were taken from the untreated (control) cells. After removing the medium, 200 μl RNA protect (#76526, Qiagen) was added to the cell pellet and the cells were stored at −80° C.
(§2) RNA isolation: Total RNA was isolated with the SV96 Total RNA Isolation System kit (#Z3505, Promega) according to manufacturer's instructions. The procedure includes a ‘RNAse free DNAse’ gDNA removal step.
(§3) Determining the RNA concentration: RNA concentrations were determined with the RiboGreen (#R11490, Thermo Fisher) kit according to manufacturer's instructions.
(§4) cDNA synthesis: RNA was reverse transcribed into cDNA using the Quantitect Reverse Transcript Kit (#205313, Qiagen) according to manufacturer's instructions. This procedure includes a second ‘RNAse free DNAse’ gDNA removal step, ensuring the complete removal of gDNA from the samples. For each time point (6 h, 24 h, or 48 h) identical volumes of RNA were used for cDNA synthesis. After synthesis, cDNA is diluted with nuclease free water to obtain approximately similar cDNA concentrations per sample.
(§5) qPCR: 1) 50° C. for 10 min (Uracil-DNA glycosylase ([…]) step to remove all potential traces of amplicon DNA from previous qPCRs); 2) 5 min UDP inactivation/denaturation at 95° C.; 3) 40 cycles of 10s denaturation at 95° C., 20s annealing at 60° C., and 30s extension at 72° C.; and 4) Dissociation curve to determine the melting temperature of the qPCR amplicon.
(§6) qPCR Data Analysis: Cq and Tm raw data values are determined by the BioRad CFX manager software from the PCR machine. For every PCR sample that produced a Cq value the corresponding melting temperature of the PCR amplicon (Tm) was checked to identify samples that generated dual or a specific PCR products. A PCR product is regarded a specific when its Tm is >0.5° C. different from that the Tm of the specific PCR amplicon, in this case the Cq value is removed and not used for further data analysis. Cq values were than normalized by subtracting the (mean) Cq value of the two housekeeping genes (ACTB & RPS18) from the Cq value of the gene of interest. The normalized value is called DCq. The Cq difference between sample and the control (DDCq) was calculated by subtracting DCq control from DCq sample. The fold difference in expression between the control (no compound) and the compound treated sample is than calculated according the 2^-DDCq method.

[3] = Aggregation of asparaginase batches; assay type: physicochemical; details: product batches
From the text: In some embodiments, the recombinant L-asparaginase of the disclosure has greater purity than other L-asparaginases. […] In some embodiments, the amount of aggregation of the recombinant L-asparaginase is less than 10%, 9%, 8%, 7%, 6%, 5%, 4%, 3%, 2%, 1%, 0.5%, 0.25%, 0.2%, 0.1%, or 0.01%. In some embodiments, the amount of aggregation seen in compositions containing the recombinant L-asparaginase is less than 1-10%. In some embodiments, the amount of aggregation seen in compositions containing the recombinant L-asparaginase is less than 10%. In some embodiments, the amount of aggregation of the recombinant L-asparaginase is less than 9%. In some embodiments, the amount of aggregation of the recombinant L-asparaginase is less than 8%. In some embodiments, the amount of aggregation of the recombinant L-asparaginase is less than 7%. In some embodiments, the amount of aggregation of the recombinant L-asparaginase is less than 6%. In some embodiments, the amount of aggregation of the recombinant L-asparaginase is less than 5%. In some embodiments, the amount of aggregation of the recombinant L-asparaginase is less than 4%. In some embodiments, the amount of aggregation of the recombinant L-asparaginase is less than 3%. In some embodiments, the amount of aggregation of the recombinant L-asparaginase is less than 2%. […]

[4] = In vivo tolerability study in naïve SCID mice; details: 150 U/kg in combination with venetoclax and R-CHOP constituents
From the text: Sensitivity to asparaginase and 11 chemotherapeutic agents (carfilzomib, doxorubicin, rapamycin, ibrutinib, cyclophosphamide, prednisolone, metformin, venetoclax, navitoclax, rituximab and vincristine) determined in 8 lymphoma lines, including diffuse large B-cell and Burkitt lymphomas. The investigated lymphoma lines are sensitive to asparagine depletion within the clinically achievable range. Expression of decisive genes (BCL2, BCL6, BCL2L1, MYC, ASNS) determined in 8 lymphoma lines (FIGS. 11 and 12). Increased expression of BCL2 served as marker for resistance of ibrutinib and rapamycin in triple hit lymphoma (FIGS. 11 and 12). Increased expression of ASNS served as marker for resistance of carfilzomib and asparaginase in Burkitt lymphoma (FIGS. 11 and 12). Identified combination agents that enhanced asparaginase activity in vitro include synergy of JZP458 and rituximab, venetoclax and ibrutinib in lymphoma lines (DLBCL) (see FIG. 13, FIG. 15, and FIG. 17). […] In vivo tolerability study of long acting Erwinia Asparaginase.

[5] = Half life of asparaginases; details: in vivo
[6] = system: liquid tumors with NRAS mutations; experiment: Sensitivity to L-asparaginase across cell line panel by NRAS status; assay type: cell-based; details: NRAS mutant vs other lines
Method: Sensitivity to L-asparaginase was determined in 140 lines across multiple indications. In silico tandem perturbation effects of Asparagine synthetase and signaling components analyzed (≈700 lines). A subset of lines are ASNS dependent for survival (see McDonald, E. Robert et al. (2017). Project DRIVE: A Compendium of Cancer Dependencies and Synthetic Lethal Relationships Uncovered by Large-Scale, Deep RNAi Screening. Cell 170, 577-592 and https://oncologynibr.shinyapps.io/drive/which is herein incorporated by reference to show expression of ASNS and sensitivity to asparagine depletion). In vitro, most lines are sensitive to asparagine depletion within a clinically achievable range (see FIG. 6).

[7] = system: ASNS expression in Burkitt lymphoma lines; experiment: qPCR gene expression after compound treatment; assay type: cell-based
Method: as §1, §2, §3, §4, §5, §6

[8] = system: BCL2 expression in DLBCL lines (ABC and GCB type); experiment: qPCR gene expression after compound treatment; assay type: cell-based
Method: as §1, §2, §3, §4, §5, §6

## CO[C@H]1C[C@@H]2CC[C@@H](C)[C@@](O)(O2)C(=O)C(=O)N2CCCC[C@H]2C(=O)O[C@H]([C@H](C)C[C@@H]2CC[C@@H](OCCO)[C@H](OC)C2)CC(=O)[C@H](C)/C=C(\C)[C@@H](O)[C@@H](OC)C(=O)[C@H](C)C[C@H](C)/C=C/C=C/C=C/1C [everolimus]
[1]
  Bliss sum score compared with PI3K inhibitors and MEK inhibitors: increased

## C=CC(=O)N1CCC[C@@H](n2nc(-c3ccc(Oc4ccccc4)cc3)c3c(N)ncnc32)C1 [ibrutinib]
[2]
  increase of BCL2 expression: 1.25 fold

## CO[C@H]1C[C@@H]2CC[C@@H](C)[C@@](O)(O2)C(=O)C(=O)N2CCCC[C@H]2C(=O)O[C@H]([C@H](C)C[C@@H]2CC[C@@H](O)[C@H](OC)C2)CC(=O)[C@H](C)/C=C(\C)[C@@H](O)[C@@H](OC)C(=O)[C@H](C)C[C@H](C)/C=C/C=C/C=C/1C [rapamycin]
[2]
  increase of BCL2 expression: 1 fold

B1: Erwinase: Erwinia chrysanthemi L-asparaginase type II product commercially approved for ALL (protein, UniProt P06608 22-348, looked up)
L-asparaginase: ADKLPNIVILATGGTIAGSAATGTQTTGYKAGALGVDTLINAVPEVKKLANVKGEQFSNMASENMTGDVVLKLSQRVNELLARDDVDGVVITHGTDTVEESAYFLHLTVKSDKPVVFVAAMRPATAISADGPMNLLEAVRVAGDKQSRGRGVMVVLNDRIGSARYITKTNASTLDTFKANEEGYLGVIIGNRIYYQNRIDKLHTTRSVFDVRGLTSLPKVDILYGYQDDPEYLYDAAIQHGVKGIVYAGMGAGSVSVRGIAGMRKAMEKGVVVIRSTRTGNGIVPPDEELPGLVSDSLNPAHARILLMLALTRTSDPKVIQEYFHTY
[3]
  aggregation: about 6%

B2: JZP341: pasylated L-asparaginase; long acting Erwinia asparaginase (protein, UniProt P06608 22-348, looked up)
L-asparaginase: B1 L-asparaginase
modifications: PASylated
[4]
  tolerability: tolerated
[5]
  half life t½: ~16 h

B3: JZP-458: recombinant, unfunctionalized, short acting Erwinia L-asparaginase (SEQ ID NO: 1 tetramer) (protein, listed as Dickeya chrysanthemi)
chain: B1 L-asparaginase
modifications: homotetramer
[6]
  sensitivity of liquid tumors with NRAS mutations: more sensitive
[5]
  half life t½: ~2.13 h
[7]; Burkitt lymphoma lines
  change of ASNS expression: significantly increase
[7]; Burkitt lymphoma lines (BJAB, RAJI, RAMOS), after treatment
  increase of ASNS expression: 0.75 fold
[8]
  change of BCL2 expression: decrease
